Reference: US20220081485A1 (BEIJING WISDOMAB BIOTECHNOLOGY, published 2022)
Like-named read-outs stand apart in the source and are kept apart here.

B1: L18D7-IgG4 (antibody, V domains shown)
VH: EVQLVESGGGLVQPGGSLRLSCAVSGFTFSSYAMSWVRQAPGKGLEWVSSITGGGGGIYYADSVKGRFTISRDNSKNTVYLQMNSLRAEDTAVYYCAKDRISITIRPRYFGLDFWGQGTTVTVSS
VL: DIVMTQSPLSLPVTPGEPASISCRSSQSLLYSIGYNYLDWYLQKSGQSPQLLIYLGSNRASGVPDRFSGSGSGTDFTLKISRVEAEDVGFYYCMQSFKAPYTFGQGTKLEIKR
notes: also called S1E6 light chain mutant L18D7
B2: L28C9-IgG4 (antibody, V domains shown)
VH: EVQLVESGGGLVQPGGSLRLSCAVSGFTFSSYAMSWVRQAPGKGLEWVSSITGGGGGIYYADSVKGRFTISRDNSKNTVYLQMNSLRAEDTAVYYCAKDRISITIRPRYFGLDFWGQGTTVTVSS
VL: DIVMTQSPLSLPVTPGEPASISCRSSQNVVYGNGYNYLDWYLQKSGQSPQLLIYLGNNVAAGVPDRFSGSGSGTDFTLKISRVEAEDVGFYYCMQSLKAPYTFGQGTKLEIKR
notes: also called S1E6 light chain mutant L28C9
B3: L10B2-IgG4 (antibody, V domains shown)
VH: EVQLVESGGGLVQPGGSLRLSCAVSGFTFSSYAMSWVRQAPGKGLEWVSSITGGGGGIYYADSVKGRFTISRDNSKNTVYLQMNSLRAEDTAVYYCAKDRISITIRPRYFGLDFWGQGTTVTVSS
VL: DIVMTQSPLSLPVTPGEPASISCRSSHNLLYSNGYNYLDWYLQKPGQSPQLLIYLGSNRAYGVPDRFSGSGSGTDFTLKISRVEAEDVGVYHCMQALQSPYTFGQGTKVDIKR
notes: also called S1E6 light chain mutant L10B2
B4: L10C2-IgG4 (antibody, V domains shown)
VH: EVQLVESGGGLVQPGGSLRLSCAVSGFTFSSYAMSWVRQAPGKGLEWVSSITGGGGGIYYADSVKGRFTISRDNSKNTVYLQMNSLRAEDTAVYYCAKDRISITIRPRYFGLDFWGQGTTVTVSS
VL: DIVMTQSPLSLPVTAGAPASISCRSSQSLLYSNGYNYLDWYMQKPGQSPQLLIYLGSNRASGVPDRFSGSGSGTDFTLKISRVEAEDVGVYYCMQALETPYAFGQGTKVEIKR
notes: also called S1E6 light chain mutant L10C2

What was measured:
[1] = target: T1, human IL-4R on cells (HEK-Blue IL-4/IL-13 cells, TF-1 cells, human PBMCs) (human, UniProt P24394 26-825); experiment: cell-based or functional assay
T1 sequence (looked up): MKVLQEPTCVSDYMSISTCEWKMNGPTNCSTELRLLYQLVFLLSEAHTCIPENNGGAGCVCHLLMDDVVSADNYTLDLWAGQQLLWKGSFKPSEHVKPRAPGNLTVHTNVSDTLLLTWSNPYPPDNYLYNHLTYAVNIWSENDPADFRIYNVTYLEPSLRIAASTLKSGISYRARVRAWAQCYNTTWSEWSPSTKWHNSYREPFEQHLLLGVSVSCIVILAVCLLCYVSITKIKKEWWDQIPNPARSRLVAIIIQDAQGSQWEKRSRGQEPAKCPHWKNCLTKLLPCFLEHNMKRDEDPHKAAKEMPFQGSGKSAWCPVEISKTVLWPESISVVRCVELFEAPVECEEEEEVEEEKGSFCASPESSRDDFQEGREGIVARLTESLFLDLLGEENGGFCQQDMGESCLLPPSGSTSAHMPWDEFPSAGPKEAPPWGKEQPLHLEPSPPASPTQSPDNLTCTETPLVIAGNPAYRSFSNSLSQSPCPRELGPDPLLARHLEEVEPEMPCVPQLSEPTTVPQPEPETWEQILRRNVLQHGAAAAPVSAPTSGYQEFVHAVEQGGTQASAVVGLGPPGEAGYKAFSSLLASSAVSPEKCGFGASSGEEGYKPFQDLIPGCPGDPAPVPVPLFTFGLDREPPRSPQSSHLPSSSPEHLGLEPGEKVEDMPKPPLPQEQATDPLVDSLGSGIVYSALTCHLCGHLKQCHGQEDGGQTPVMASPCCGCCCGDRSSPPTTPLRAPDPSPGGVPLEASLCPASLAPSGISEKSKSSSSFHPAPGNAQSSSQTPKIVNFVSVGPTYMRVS

[2] = target: T1, human IL-4R on cells (HEK-Blue …); experiment: cell-based or functional assay; remark: listed apart in the source
[3] = target: T1, human IL-4R on cells (HEK-Blue …); experiment: cell-based or functional assay; remark: listed apart in the source
[4] = target: T1, human IL-4R on cells (HEK-Blue …); experiment: cell-based or functional assay; remark: listed apart in the source
[5] = target: T2, mmIL4R-mFc (Macaca mulatta IL-4R extracellular domain fused to murine IgG2a Fc) (Macaca mulatta); experiment: SPR Biacore X100, antibody captured, mmIL4R-mFc as analyte
T2 chain: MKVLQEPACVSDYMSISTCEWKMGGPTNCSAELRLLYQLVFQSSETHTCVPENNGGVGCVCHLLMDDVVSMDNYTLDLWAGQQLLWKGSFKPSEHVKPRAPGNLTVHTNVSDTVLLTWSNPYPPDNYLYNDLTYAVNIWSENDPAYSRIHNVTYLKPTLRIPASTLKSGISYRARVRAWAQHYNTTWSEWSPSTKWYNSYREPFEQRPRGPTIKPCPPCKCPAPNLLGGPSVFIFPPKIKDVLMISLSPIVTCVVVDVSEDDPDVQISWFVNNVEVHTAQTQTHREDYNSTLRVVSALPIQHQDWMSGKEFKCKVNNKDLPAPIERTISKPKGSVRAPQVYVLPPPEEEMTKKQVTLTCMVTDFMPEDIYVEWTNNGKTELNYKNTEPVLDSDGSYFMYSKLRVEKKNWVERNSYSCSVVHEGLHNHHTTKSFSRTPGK
Procedure: (§1) The affinity of each anti-IL4R IgG4 chimeric antibody was determined using Biacore X100. Amino coupling kits, human antibody capture kits, CM5 chips, 1× HBS-EP (pH 7.4) and all reagents used in this assay were purchased from GE Healthcare. According to the instructions in the kits, an antibody against the human Fc region was coupled to the surface of the CM5 chip using an amino coupling method, and antibody proteins were diluted to appropriate concentrations to ensure that about 100 RU of the antibodies was captured by the antibody against the human Fc. IL4R-his was set to a series of concentration gradients (100 nm, 33.3 nm, 11.1 nm, 3.7 nm, 1.23 nm) and flew through the surface of the stationary phase.
Similarly, anti-IL4R monoclonal antibodies were captured and mmIL4R-mFc was set to a series of concentration gradient (50 nm, 16.7 nm, 5.56 nm, […], 0.62 nm).

[6] = target: T3, recombinant hIL4R-his (human IL-4R extracellular domain with C-terminal His tag) (human (Homo sapiens), UniProt P24394 26-232); experiment: SPR Biacore X100, antibody captured by anti-human Fc, IL4R-his as analyte, 25 C
T3 construct: The tag was added at the C-terminus; The protein was expressed in HEK293 cells; also called huIL4R
T3 sequence: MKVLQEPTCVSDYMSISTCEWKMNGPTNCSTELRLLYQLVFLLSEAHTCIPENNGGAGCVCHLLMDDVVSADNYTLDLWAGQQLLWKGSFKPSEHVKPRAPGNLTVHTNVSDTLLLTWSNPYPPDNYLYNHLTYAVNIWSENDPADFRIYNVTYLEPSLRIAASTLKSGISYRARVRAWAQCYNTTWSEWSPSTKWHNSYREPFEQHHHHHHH
Procedure: as §1

[7] = target: T4, IL4R-mFc (human IL-4R extracellular domain fused to murine IgG2a Fc) (human (Homo sapiens)); experiment: blocking ELISA: antibody gradient with IL4-his at a fixed concentration on coated IL4R-mFc; bound IL4-his detected with HRP-mouse-anti-his IgG
T4 construct: also called antigen IL4R-mFc
Procedure: (§2) 96 well plates were coated with antigen IL4R-mFc (3 μg/ml, 100 μI/well) overnight at 4° C.

[8] = target: T1, human IL-4R on cells (HEK-Blue …); experiment: cell-based or functional assay; remark: listed apart in the source
[9] = target: T1, human IL-4R on cells (HEK-Blue …); experiment: cell-based or functional assay; remark: listed apart in the source
[10] = target: T1, human IL-4R on cells (HEK-Blue …); experiment: cell-based or functional assay; remark: listed apart in the source
[11] = target: T3, recombinant hIL4R-his (human IL-4R …); experiment: SPR Biacore X100, antibody captured by anti-human Fc, IL4R-his as analyte, 25 C; remark: listed apart in the source
Procedure: as §1

[12] = target: T4, IL4R-mFc (human IL-4R extracellular …); experiment: blocking ELISA: antibody gradient with IL4-his at a fixed concentration on coated IL4R-mFc; bound IL4-his detected with HRP-mouse-anti-his IgG; remark: listed apart in the source
Procedure: as §2

Row | IC50 values in inhibition of IL-4 (SEAP, HEK-Blue IL-4/IL-13 cells) [1] [nM] | IC50 values in inhibition of IL-13 (SEAP, HEK-Blue IL-4/IL-13 cells) [2] [nM] | IC50 values in inhibition of IL-4 (IL-4 induced proliferation of TF-1 cells, CellTiter-Glo) [3] [nM] | IC50 values in inhibition of CD23 expression on human PBMCs (IL-4 stimulated, flow cytometry) [4] [nM] | Kd [5] [nM] | koff [5] [s⁻¹] | kon [5] [M⁻¹ s⁻¹] | Kd [6] [nM] | koff [6] [s⁻¹] | kon [6] [M⁻¹ s⁻¹] | IC50 (read off the curve) [7] [nM] | fold of IC50 in inhibition of IL-4 induced CD23 expression on PBMCs against L18D7 [8] [fold] | IC50 values in inhibition of IL-4 (SEAP, HEK-Blue IL-4/IL-13 cells) [9] [nM] | IC50 values in inhibition of IL-13 (SEAP, HEK-Blue IL-4/IL-13 cells) [10] [nM] | Kd [11] [nM] | koff [11] [s⁻¹] | kon [11] [M⁻¹ s⁻¹] | IC50 (read off the curve) [12] [nM] | fold of IC50 in inhibition of IL-4 against L10B2 (HEK-Blue IL-4/IL-13 cells) [8] [fold] | fold of IC50 in inhibition of IL-13 against L10B2 (HEK-Blue IL-4/IL-13 cells) [8] [fold] | Binder
1 | 0.0484 | 0.0102 | 0.116 | 0.0268 | 1.67 | 0.000984 | 590000 | 0.48 | 0.000143 | 297000 | ~10 | – | – | – | – | – | – | – | – | – | B1
2 | 0.0494 | 0.0121 | 0.129 | 0.0635 | 8.4 | 0.00594 | 706000 | 0.586 | 0.000194 | 331000 | ~4 | 2.3 | – | – | – | – | – | – | – | – | B2
3 | – | – | – | – | – | – | – | – | – | – | – | – | 0.207 | 0.0131 | 0.443 | 0.000152 | 343000 | ~7 | – | – | B3
4 | – | – | – | – | – | – | – | – | – | – | – | – | 0.333 | 0.0314 | 0.874 | 0.000309 | 353000 | ~8 | 1.6 | 2.4 | B4
